Where no end group is shown, it is not given here. [ ]: non-standard residue; d: D form. Cha = N[C@@H](CC1CCCCC1)C(=O)O

Data set [1] in a line: Rheological characterization of SUP bulk hydrogels. Format: physicochemical. The procedure:
The mechanical stiffness of the peptide hydrogels was analyzed using a TA Ares-G2 Rheometer equipped with parallel-plate geometries of 8 mm diameter at room temperature. The sample gap between the upper and the lower geometries was set at 1.8 mm. The hydrogels were prepared from 135 μL of peptide solution that was mixed with 15 μL of 10×PBS in an 8 mm i.d. poly(methyl methacrylate) (PMMA) casting ring and left for 1 day before measurement. The rings were kept inside Petri dishes at room temperature with water surrounding them and tightly sealed to avoid dehydration. To control the accuracy of the measurements, six replicates for each peptide hydrogel were prepared. The stiffness was analyzed through three successive tests, which were time sweep, frequency sweep, and amplitude sweep. Time sweep was first performed for 5 min with an angular frequency and a strain of 1 rad/s and 0.1%, respectively. A frequency sweep was subsequently performed on the sample for a range of angular frequency of 0.1-100 rad/s with the same strain of 0.1%. The tests were completed with the amplitude sweep by applying a gradual increase of strain […] at 1 rad/s angular frequency.

The nature of data set [2]: Peptide gelation study (vial inversion method). Type of data set: physicochemical. Particulars: 1 mg/ml and 10 mg/ml, compared to IIZK and IZZK, FIG. 57. As for the experimental part: The preweighed (as per the required final concentration) peptide powder was dissolved in 0.9 mL of Milli-Q® water in a glass vial. The solution was vortexed for 5-10 s to obtain a clear and homogeneous solution. To this peptide solution, 0.1 mL of PBS buffer (10×, w/o Ca^2+ and Mg^2+) was added. To ensure a homogeneous distribution of buffer in the solution, the glass vial was further vortexed for 2-3 s. The glass vial was kept undisturbed on the bench, and hydrogel formation was observed using the vial inversion method, as shown in FIG. 9. The pH of the solutions of IVFK (SEQ ID NO. 1) and IVZK (SEQ ID NO. 2) was 5.57 and 5.48 at a 5 mg/mL concentration, respectively. After the addition of PBS, the pH changed to 7.7 and 7.6 for IVFK (SEQ ID NO. 1) and IVZK (SEQ ID NO. 2), respectively. The pH of the Milli-Q® water and phosphate buffer used was 6.7 and 7.4, respectively.

For “IIZK: self-assembling ultrashort tetrapeptide, Cha-containing, one-letter sequence IIZK (II[Cha]K)”, the “Loss modulus (G″)” value in data set [1] (1 mg/mL) is reported as 0.88 ± 0.04 kPa; in data set [1] (2 mg/mL) it was 2.02 ± 0.09 kPa; in data set [1] (5 mg/mL), 7.08 ± 0.59 kPa; in data set [1] (8 mg/mL), 10.91 ± 0.44 kPa; in data set [1] (10 mg/mL), 15.54 ± 0.68 kPa; in data set [1] (13 mg/mL), 37.76 ± 2.38 kPa. Besides, the “Storage Modulus (G′, kPa)” value in data set [1] (1 mg/mL) turned out to be 6.52 ± 0.18 kPa; in data set [1] (2 mg/mL), 16.82 ± 0.72 kPa; in data set [1] (5 mg/mL), 64.74 ± 4.89 kPa; in data set [1] (8 mg/mL), 89.40 ± 1.86 kPa; in data set [1] (10 mg/mL), 134.04 ± 5.99 kPa; in data set [1] (13 mg/mL), 271.34 ± 35.09 kPa. The “tan δ (G″/G′)” value in data set [1] (1 mg/mL) was determined as 0.13; in data set [1] (2 mg/mL), 0.12; in data set [1] (5 mg/mL), 0.11; in data set [1] (8 mg/mL), 0.12; in data set [1] (10 mg/mL), 0.12; in data set [1] (13 mg/mL), 0.14.

For the substance “IIFK: self-assembling ultrashort tetrapeptide, one-letter sequence IIFK”, the “Loss modulus (G″)” value is recorded as 0.13 ± 0.04 kPa in data set [1] (1 mg/mL); 1.31 ± 0.12 kPa in data set [1] (2 mg/mL); 2.39 ± 0.11 kPa in data set [1] (5 mg/mL); 5.00 ± 0.31 kPa in data set [1] (8 mg/mL); 9.04 ± 0.56 kPa in data set [1] (10 mg/mL); 8.90 ± 0.36 kPa in data set [1] (13 mg/mL). Besides, the “Storage Modulus (G′, kPa)” value in data set [1] (1 mg/mL) came to 1.25 ± 0.86 kPa; in data set [1] (2 mg/mL), 14.45 ± 1.37 kPa; in data set [1] (5 mg/mL), 27.26 ± 1.30 kPa; in data set [1] (8 mg/mL), 49.74 ± 5.02 kPa; in data set [1] (10 mg/mL) it was 94.18 ± 7.12 kPa; in data set [1] (13 mg/mL) it was 108.21 ± 5.02 kPa. The “tan δ (G″/G′)” value amounted to 0.10 in data set [1] (1 mg/mL); 0.09 in data set [1] (2 mg/mL); 0.09 in data set [1] (5 mg/mL); 0.10 in data set [1] (8 mg/mL); 0.10 in data set [1] (10 mg/mL); 0.08 in data set [1] (13 mg/mL). The “Self-assembly rate (time to form a gel)” value in data set [2] was “slower than the Cha-containing peptides”.

(Values after patent US20230382948A1, “DELIVERY OF ENDOTHELIAL CELL-LADEN MICROGEL ELICITS ANGIOGENESIS IN SELF-ASSEMBLING ULTRASHORT PEPTIDE HYDROGELS” (KING ABDULLAH UNIVERSITY OF SCIENCE AND TECHNOLOGY, priority 2020, published 2023).)
